The source of these data is patent publication US20120269821A1.

Some targets named below: TRO.11 envelope (HIV-1); B.SF162 envelope (HIV-1); C.TV-1 envelope (HIV-1); Du422.1 envelope (HIV-1).
Holding throughout (assay): cell-based or functional assay
In assay [1] the target is ZM197M.PB7 envelope (HIV-1).
In assay [2] the target is Du156.12 envelope (HIV-1).
Assay [3] addresses B.BG1168 envelope (HIV-1).
Assay [4] addresses QH0692.42 envelope (HIV-1).
Assay [5] deals with SC422661.8 envelope (HIV-1).
In assay [6] the target is CAP206.1.B5 envelope (HIV-1).
Assay [7] addresses COT6.15 envelope L679A (HIV-1).
Assay [8] concerns the target COT6.15 envelope A662G (HIV-1).
Assay [9] concerns the target COT6.15 envelope W670A (HIV-1).
For assay [10], the target named is COT6.15 envelope K667A (HIV-1).
Assay [11] addresses COT6.15 envelope W672A (HIV-1).
Assay [12] deals with COT6.15 envelope F673A (HIV-1).
For assay [13], the target named is COT6.15 envelope, wild type (HIV-1).
In assay [14] the target is COT6.15 envelope S671A (HIV-1).
Assay [15] addresses COT6.15 envelope D674A (HIV-1).
The target of assay [16] is COT6.15 envelope L663A (HIV-1).
Assay [17] deals with COT6.15 envelope W666A (HIV-1).
The target of assay [18] is COT6.15 envelope L669A (HIV-1).
Assay [19] addresses COT6.15 envelope D674S (HIV-1).
Assay [20] has as its target COT6.15 envelope I675A (HIV-1).
Assay [21] concerns the target COT6.15 envelope W680A (HIV-1).
Assay [22] concerns the target COT6.15 envelope T676A (HIV-1).
Assay [23] addresses COT6.15 envelope D664A (HIV-1).
Assay [24] deals with COT6.15 envelope K677A (HIV-1).
In assay [25] the target is COT6.15 envelope S665A (HIV-1).
Assay [26] concerns the target COT6.15 envelope N668A (HIV-1).
The target in assay [27] is COT6.15 envelope D674N (HIV-1).
The target in assay [28] is COT6.15 envelope W678A (HIV-1).

Turning to mAb 2F5 (Polymun Scientific) (antibody), the IC50 in TZM-bl cells is more than 25 mg/mL in assay [1]; more than 25 mg/mL in [2]; more than 25 mg/mL with TRO.11 envelope (HIV-1); 1.81 mg/mL in [4]; more than 25 mg/mL in [6]; more than 25 mg/mL in the assay with Du422.1 envelope (HIV-1). For the same substance, the IC50 in TZM-bl/FcγRI cells is 0.06 mg/mL in assay [1]; more than 25 mg/mL in [2]; less than 0.01 mg/mL in [4]; less than 0.01 mg/mL in [5]; more than 25 mg/mL in assay [6]; more than 25 mg/mL with Du422.1 envelope (HIV-1). Besides, the 50% neutralization level is 0.1 µg/mL with B.SF162 envelope (HIV-1), 0.32 µg/mL in [3] and 10.9 µg/mL with C.TV-1 envelope (HIV-1).
Turning to mAb 4E10 (antibody), the IC50, pseudovirus neutralization in assay [7] is 0.09 µg/mL; in [8], 0.12 µg/mL; in assay [9], 0.11 µg/mL; in assay [10] it was 0.05 µg/mL; in [11], more than 25 µg/mL; in assay [12] it was more than 25 µg/mL. The IC50, pseudovirus neutralization in [13] turned out to be 0.9 µg/mL; in [14] it was 0.04 µg/mL; in assay [15] it was 1.4 µg/mL; in assay [16], 0.02 µg/mL; in [17], 0.51 µg/mL; in assay [18], 0.05 µg/mL. The IC50, pseudovirus neutralization in assay [19] turned out to be 2.49 µg/mL; in [20], 0.04 µg/mL; in assay [21] it was 10.9 µg/mL; in assay [22], 21.8 µg/mL; in [23], 0.77 µg/mL; in assay [24], 0.05 µg/mL. Further, the IC50, pseudovirus neutralization in assay [25] came out at 0.14 µg/mL; in [26] it was 1.3 µg/mL; in assay [27] it was 0.33 µg/mL; in assay [28], 0.05 µg/mL. In addition, the Ratio (mutant IC50)/(wild-type IC50) in assay [7] was 0.1; in [8], 0.1; in [9], 0.1; in assay [10], 0.1; in [11], more than 25; in assay [12] it was more than 25. The Ratio (mutant IC50)/(wild-type IC50) is 0 in [14]; 1.6 in assay [15]; 0 in assay [16]; 0.6 in assay [17]; 0.1 in [18]; 2.8 in assay [19]. Also, the Ratio (mutant IC50)/(wild-type IC50) in assay [20] was found to be 0; in [21] it was 12.1; in [22] it was 24.2; in [23] it was 0.9; in assay [24], 0.1; in assay [25], 0.2. The Ratio (mutant IC50)/(wild-type IC50) in [26] was 1.4; in assay [27], 0.4; in [28] it was 0.1. For the same substance, the IC50 in TZM-bl cells is 1.1 mg/mL in assay [1]; 0.2 mg/mL in assay [2]; 0.3 mg/mL with TRO.11 envelope (HIV-1); 6.5 mg/mL in assay [4]; 0.1 in assay [6]; 0.3 mg/mL in the assay with Du422.1 envelope (HIV-1). Also, the IC50 in TZM-bl/FcγRI cells in assay [1] was less than 0.01 mg/mL; in assay [2], less than 0.01 mg/mL; in assay [4], 0.11 mg/mL; in [5], less than 0.01 mg/mL; in assay [6], less than 0.01 mg/mL; with Du422.1 envelope (HIV-1), less than 0.01 mg/mL.
With mAb Z13e1 (antibody), the IC50 in TZM-bl cells in [1] came out at 30; in assay [2] it was 4.7 mg/mL; with TRO.11 envelope (HIV-1), 13.3 mg/mL; in assay [4] it was 46 mg/mL.
recombinant 2F5 IgG antibody: the 50% neutralization level stood at 0.3 µg/mL in the assay with B.SF162 envelope (HIV-1), 1.17 µg/mL in assay [3] and 34.5 µg/mL with C.TV-1 envelope (HIV-1).
